{
  "source": "paper PMC10397247",
  "assay_in_all_cases": "two-hybrid library CCmax;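 also: natural log of median RNA to DNA barcode read ratio; higher means stronger binding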",
  "key": {"4H3056-AA": {"target": "T1, 4H3056-AA", "T1 chain": "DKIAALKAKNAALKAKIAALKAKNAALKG"}, "4H3133-AA": {"target": "T2, 4H3133-AA", "T2 chain": "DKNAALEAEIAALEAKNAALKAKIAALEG", "settings": "mean of both orientations"}, "4H3162-AA": {"target": "T3, 4H3162-AA", "T3 chain": "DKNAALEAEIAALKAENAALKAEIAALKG", "settings": "mean of both orientations"}, "4H32-AA": {"target": "T4, 4H32-AA", "T4 chain": "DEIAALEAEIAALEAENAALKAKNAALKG", "settings": "mean of both orientations"}, "4H3378-AA": {"target": "T5, 4H3378-AA", "T5 chain": "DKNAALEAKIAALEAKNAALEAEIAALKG", "settings": "mean of both orientations"}, "4H340-AA": {"target": "T6, 4H340-AA", "T6 chain": "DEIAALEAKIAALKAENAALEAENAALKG", "settings": "mean of both orientations"}, "4H3413-AA": {"target": "T7, 4H3413-AA", "T7 chain": "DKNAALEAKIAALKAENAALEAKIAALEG", "settings": "mean of both orientations"}, "4H3588-AA": {"target": "T8, 4H3588-AA", "T8 chain": "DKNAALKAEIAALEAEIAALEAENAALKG", "settings": "mean of both orientations"}, "4H3590-AA": {"target": "T9, 4H3590-AA", "T9 chain": "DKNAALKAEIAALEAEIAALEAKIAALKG"}, "4H3606-AA": {"target": "T10, 4H3606-AA", "T10 chain": "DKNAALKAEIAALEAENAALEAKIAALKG", "settings": "mean of both orientations"}, "4H3631-AA": {"target": "T11, 4H3631-AA", "T11 chain": "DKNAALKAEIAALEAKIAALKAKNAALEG", "settings": "mean of both orientations"}, "4H3697-AA": {"target": "T12, 4H3697-AA", "T12 chain": "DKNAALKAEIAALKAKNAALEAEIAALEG", "settings": "mean of both orientations"}, "4H3718-AA": {"target": "T13, 4H3718-AA", "T13 chain": "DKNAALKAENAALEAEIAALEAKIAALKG", "settings": "mean of both orientations"}, "4H384-AA": {"target": "T14, 4H384-AA", "T14 chain": "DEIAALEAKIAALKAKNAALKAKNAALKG", "settings": "mean of both orientations"}, "4H3865-AA": {"target": "T15, 4H3865-AA", "T15 chain": "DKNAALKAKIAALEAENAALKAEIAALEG", "settings": "mean of both orientations"}, "4H697-AA": {"target": "T16, 4H697-AA", "T16 chain": "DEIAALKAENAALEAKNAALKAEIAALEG", "settings": "mean of both orientations"}, "4H982-AA": {"target": "T17, 4H982-AA", "T17 chain": "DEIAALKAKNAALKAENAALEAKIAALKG", "settings": "mean of both orientations"}, "Core_ININ-es_EEEE": {"target": "T18, Core_ININ-es_EEEE", "T18 chain": "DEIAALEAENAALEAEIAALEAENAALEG", "settings": "mean of both orientations"}, "P4": {"target": "T19, P4", "T19 chain": "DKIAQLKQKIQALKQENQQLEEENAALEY", "settings": "mean of both orientations"}, "P4S": {"target": "T20, P4S", "T20 chain": "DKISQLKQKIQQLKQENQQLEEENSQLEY", "settings": "mean of both orientations"}, "Core_IIII-es_KKEK": {"target": "T21, Core_IIII-es_KKEK", "T21 chain": "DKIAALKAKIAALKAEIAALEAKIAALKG", "settings": "mean of both orientations"}},
  "data": [
    {"binder": "DKIAALKAKNAALKAKIAALKAKNAALKG", "note": "[4H3056-AA]", "values": [
      {"measurement": "interaction score", "setting": "4H3056-AA", "result": -1.79},
      {"measurement": "interaction score", "setting": "4H3133-AA", "result": -0.786},
      {"measurement": "interaction score", "setting": "4H3162-AA", "result": -1.58},
      {"measurement": "interaction score", "setting": "4H32-AA", "result": -1.08},
      {"measurement": "interaction score", "setting": "4H3378-AA", "result": -1.09},
      {"measurement": "interaction score", "setting": "4H340-AA", "result": -1.52},
      {"measurement": "interaction score", "setting": "4H3413-AA", "result": -0.103},
      {"measurement": "interaction score", "setting": "4H3588-AA", "result": -0.439},
      {"measurement": "interaction score", "setting": "4H3590-AA", "result": -0.167},
      {"measurement": "interaction score", "setting": "4H3606-AA", "result": 0.58},
      {"measurement": "interaction score", "setting": "4H3631-AA", "result": -1.74},
      {"measurement": "interaction score", "setting": "4H3697-AA", "result": -0.53},
      {"measurement": "interaction score", "setting": "4H3718-AA", "result": -0.69},
      {"measurement": "interaction score", "setting": "4H384-AA", "result": -1.93},
      {"measurement": "interaction score", "setting": "4H3865-AA", "result": 0.0241},
      {"measurement": "interaction score", "setting": "4H697-AA", "result": -1.44},
      {"measurement": "interaction score", "setting": "4H982-AA", "result": -1.65},
      {"measurement": "interaction score", "setting": "Core_ININ-es_EEEE", "result": 1.52}
    ]},
    {"binder": "DEIQQLEEEISQLEQKNSQLKEKNQQLKY", "note": "[P3S]", "values": [
      {"measurement": "interaction score", "setting": "P4", "result": 0.472},
      {"measurement": "interaction score", "setting": "P4S", "result": 0.00696}
    ]},
    {"binder": "DEIAALEAEIAALEAKIAALKAEIAALEG", "note": "[Core_IIII-es_EEKE]", "values": [
      {"measurement": "interaction score", "setting": "Core_IIII-es_KKEK", "result": 2.36}
    ]}
  ]
}
